Measured values: publication PMC6273018, “Effects of Flavonoids in Lysimachia clethroides Duby on the Activities of Cytochrome P450 CYP2E1 and CYP3A4 in Rat Liver Microsomes” (Molecules, 2016)

Substrate: O=[N+]([O-])c1ccc(O)cc1
Assay: cells, lysate or membranes named
Settings: other: Lineweaver-Burk plot; rat liver microsomes; pH 7.4
Experimental: The rats were fasted for 12 h with free access to water and then sacrificed by cervical dislocation. The liver was removed promptly and washed with ice-cold physiological saline solution to yellowish brown. […] The liver homogenate solution was centrifuged at 4 °C for 20 min at 12,000 r·min^−1 and supernatant fraction was reserved. The supernatant per millilitre was added with 0.1 mL CaCl2 (88 mM), gently shaken and kept at 0 to 4 °C for 5 min. The mixed solution was transferred to centrifuge tubes and centrifuged at 4 °C for 30 min at 15,000 r·min^−1. […] Protein concentration of the microsomes was determined by the method of Bradford. […]
The apparent Km (Michaelis constant) value was calculated according to the Michaelis-Menten equation and Lineweaver-Burk plot.
Group 1 (normal control) was added with phosphate buffer, group 2 (flavonoids reagent group) were added with flavonoids, and group 3 was given clomethiazole as positive control. […] The concentrations of probe substrate metabolites were calculated from the standard curves. The percentage of inhibition was calculated using the formula: %Inhibition = ((A0 − A1)/A0) × 100%, in which A0 was the concentration of probe substrate metabolite of group 1 and A1 was the concentration of probe substrate metabolite of group 2 and 3. The IC50 values were calculated based on the concentration-effect linear regression curve.

B1: CYP2E1 (Rattus norvegicus) (protein)
chain: MAVLGITIALLVWVATLLVISIWKQIYNSWNLPPGPFPLPILGNIFQLDLKDIPKSFTKLAKRFGPVFTLHLGSRRIVVLHGYKAVKEVLLNHKNEFSGRGDIPVFQEYKNKGIIFNNGPTWKDVRRFSLSILRDWGMGKQGNEARIQREAQFLVEELKKTKGQPFDPTFLIGCAPCNVIADILFNKRFDYNDKKCLRLMSLFNENFYLLSTPWIQLYNNFADYLRYLPGSHRKIMKNVSEIKQYTLEKAKEHLQSLDINCARDVTDCLLIEMEKEKHSQEPMYTMENVSVTLADLFFAGTETTSTTLRYGLLILMKYPEIEEKLHEEIDRVIGPSRVPAVRDRLDMPYMDAVVHEIQRFINLVPSNLPHEATRDTVFQGYVIPKGTVVIPTLDSLLYDSHEFPDPEKFKPEHFLNENGKFKYSDYFKAFSAGKRVCVGEGLARMELFLLLSAILQHFNLKSLVDPKDIDLSPVTVGFGSIPPQFKLCVIPRS
Km: 90.92 µM
